In US6387696:

Tests used:
[1] = target: recombinant human calcium channel α1B-1α2bβ1-2 on transfected HEK293 cells (human); test: saturation binding of 125I-ω-CgTx GVIA to transiently transfected HEK293 cells
[2] = target: recombinant human calcium channel α1B-2β1-2 on transfected HEK293 cells (human); test: as above
[3] = target: recombinant human calcium channel α1B-1β1-3 on transfected HEK293 cells (human); test: as above
[4] = target: recombinant human calcium channel α1B-2α2bβ1-2 on transfected HEK293 cells (human); test: as above
[5] = target: recombinant human calcium channel α1B-2α2bβ1-3 on transfected HEK293 cells (human); test: as above
[6] = target: recombinant human calcium channel α1B-1β1-2 on transfected HEK293 cells (human); test: as above
[7] = target: recombinant human calcium channel α1B-2β1-3 on transfected HEK293 cells (human); test: as above
[8] = target: recombinant human calcium channel α1B-1α2bβ1-2 on transfected HEK293 cells (human); test: ω-CgTx binding to transiently transfected HEK293 cells (8, 5 and 2 µg plasmids)
[9] = target: T1, recombinant human calcium channel α1B-1α2b on transfected HEK293 cells (human)
[10] = target: human calcium channel α1B-1 subunit alone on transfected HEK293 cells (human)
[11] = target: T1, recombinant human calcium channel …; test: saturation binding of 125I-ω-CgTx GVIA to transiently transfected HEK293 cells

recombinant human calcium channel α1B-2α2bβ1-2 on transfected HEK293 cells (human), sequence (B1AQK5 whole entry, chain 1 of 3): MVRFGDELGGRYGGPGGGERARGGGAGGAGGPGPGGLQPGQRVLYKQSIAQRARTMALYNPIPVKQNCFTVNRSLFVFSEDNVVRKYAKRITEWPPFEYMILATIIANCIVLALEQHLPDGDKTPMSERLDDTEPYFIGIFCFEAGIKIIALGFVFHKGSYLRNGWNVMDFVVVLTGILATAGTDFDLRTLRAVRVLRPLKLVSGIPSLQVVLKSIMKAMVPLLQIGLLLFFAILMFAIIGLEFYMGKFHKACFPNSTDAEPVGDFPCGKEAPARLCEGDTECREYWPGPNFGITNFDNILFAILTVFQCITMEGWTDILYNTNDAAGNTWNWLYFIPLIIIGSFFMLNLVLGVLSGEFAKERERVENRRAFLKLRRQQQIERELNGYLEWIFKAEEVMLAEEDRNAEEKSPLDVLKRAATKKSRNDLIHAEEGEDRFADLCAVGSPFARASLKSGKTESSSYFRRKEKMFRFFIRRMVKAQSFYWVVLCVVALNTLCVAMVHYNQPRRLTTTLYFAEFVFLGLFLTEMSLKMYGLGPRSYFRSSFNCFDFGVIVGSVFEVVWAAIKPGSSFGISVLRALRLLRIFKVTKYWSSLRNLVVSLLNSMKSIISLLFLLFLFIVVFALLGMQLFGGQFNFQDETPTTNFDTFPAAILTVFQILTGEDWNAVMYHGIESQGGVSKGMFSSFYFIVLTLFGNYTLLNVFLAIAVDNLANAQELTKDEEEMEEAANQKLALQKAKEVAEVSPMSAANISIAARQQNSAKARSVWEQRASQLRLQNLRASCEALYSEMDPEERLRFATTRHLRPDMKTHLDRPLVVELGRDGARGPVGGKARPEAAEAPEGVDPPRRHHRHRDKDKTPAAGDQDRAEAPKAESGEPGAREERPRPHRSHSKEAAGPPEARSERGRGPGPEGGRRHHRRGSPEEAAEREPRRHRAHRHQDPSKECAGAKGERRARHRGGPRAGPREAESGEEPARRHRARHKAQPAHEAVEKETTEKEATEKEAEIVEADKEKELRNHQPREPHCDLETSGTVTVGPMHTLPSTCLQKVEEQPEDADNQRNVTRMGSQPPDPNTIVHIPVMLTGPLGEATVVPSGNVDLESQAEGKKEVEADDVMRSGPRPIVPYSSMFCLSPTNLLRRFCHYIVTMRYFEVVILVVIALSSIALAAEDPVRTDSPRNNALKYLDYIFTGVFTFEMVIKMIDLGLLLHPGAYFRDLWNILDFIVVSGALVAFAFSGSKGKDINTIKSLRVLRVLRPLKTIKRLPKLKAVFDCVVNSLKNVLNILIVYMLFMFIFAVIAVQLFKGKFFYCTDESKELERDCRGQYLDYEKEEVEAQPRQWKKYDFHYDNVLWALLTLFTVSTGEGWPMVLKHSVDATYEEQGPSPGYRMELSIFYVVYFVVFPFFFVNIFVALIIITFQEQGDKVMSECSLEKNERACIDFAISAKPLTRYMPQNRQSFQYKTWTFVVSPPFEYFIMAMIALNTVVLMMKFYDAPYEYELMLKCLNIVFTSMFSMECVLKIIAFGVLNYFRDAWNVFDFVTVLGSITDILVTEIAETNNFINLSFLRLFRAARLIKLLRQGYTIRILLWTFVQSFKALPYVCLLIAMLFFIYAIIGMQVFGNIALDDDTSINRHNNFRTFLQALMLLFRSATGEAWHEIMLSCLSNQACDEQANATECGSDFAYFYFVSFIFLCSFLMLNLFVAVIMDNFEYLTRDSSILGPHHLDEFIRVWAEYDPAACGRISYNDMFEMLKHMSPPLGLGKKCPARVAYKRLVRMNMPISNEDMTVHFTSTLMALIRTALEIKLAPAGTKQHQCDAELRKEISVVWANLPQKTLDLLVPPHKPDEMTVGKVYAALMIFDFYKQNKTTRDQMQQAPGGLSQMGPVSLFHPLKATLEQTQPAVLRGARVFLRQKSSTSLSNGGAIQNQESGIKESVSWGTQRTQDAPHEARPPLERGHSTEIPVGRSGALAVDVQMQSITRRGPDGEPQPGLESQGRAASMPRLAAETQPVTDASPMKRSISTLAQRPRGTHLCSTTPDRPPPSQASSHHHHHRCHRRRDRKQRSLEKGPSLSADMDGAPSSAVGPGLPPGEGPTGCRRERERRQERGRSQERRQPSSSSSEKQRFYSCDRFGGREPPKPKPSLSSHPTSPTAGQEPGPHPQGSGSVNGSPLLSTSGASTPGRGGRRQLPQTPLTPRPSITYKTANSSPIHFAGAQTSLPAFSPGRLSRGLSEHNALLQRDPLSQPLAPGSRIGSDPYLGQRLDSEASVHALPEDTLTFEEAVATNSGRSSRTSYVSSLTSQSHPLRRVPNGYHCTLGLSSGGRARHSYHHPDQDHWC
recombinant human calcium channel α1B-2α2bβ1-2 on transfected HEK293 cells (human), sequence (P54289 whole entry, chain 2 of 3, further chain): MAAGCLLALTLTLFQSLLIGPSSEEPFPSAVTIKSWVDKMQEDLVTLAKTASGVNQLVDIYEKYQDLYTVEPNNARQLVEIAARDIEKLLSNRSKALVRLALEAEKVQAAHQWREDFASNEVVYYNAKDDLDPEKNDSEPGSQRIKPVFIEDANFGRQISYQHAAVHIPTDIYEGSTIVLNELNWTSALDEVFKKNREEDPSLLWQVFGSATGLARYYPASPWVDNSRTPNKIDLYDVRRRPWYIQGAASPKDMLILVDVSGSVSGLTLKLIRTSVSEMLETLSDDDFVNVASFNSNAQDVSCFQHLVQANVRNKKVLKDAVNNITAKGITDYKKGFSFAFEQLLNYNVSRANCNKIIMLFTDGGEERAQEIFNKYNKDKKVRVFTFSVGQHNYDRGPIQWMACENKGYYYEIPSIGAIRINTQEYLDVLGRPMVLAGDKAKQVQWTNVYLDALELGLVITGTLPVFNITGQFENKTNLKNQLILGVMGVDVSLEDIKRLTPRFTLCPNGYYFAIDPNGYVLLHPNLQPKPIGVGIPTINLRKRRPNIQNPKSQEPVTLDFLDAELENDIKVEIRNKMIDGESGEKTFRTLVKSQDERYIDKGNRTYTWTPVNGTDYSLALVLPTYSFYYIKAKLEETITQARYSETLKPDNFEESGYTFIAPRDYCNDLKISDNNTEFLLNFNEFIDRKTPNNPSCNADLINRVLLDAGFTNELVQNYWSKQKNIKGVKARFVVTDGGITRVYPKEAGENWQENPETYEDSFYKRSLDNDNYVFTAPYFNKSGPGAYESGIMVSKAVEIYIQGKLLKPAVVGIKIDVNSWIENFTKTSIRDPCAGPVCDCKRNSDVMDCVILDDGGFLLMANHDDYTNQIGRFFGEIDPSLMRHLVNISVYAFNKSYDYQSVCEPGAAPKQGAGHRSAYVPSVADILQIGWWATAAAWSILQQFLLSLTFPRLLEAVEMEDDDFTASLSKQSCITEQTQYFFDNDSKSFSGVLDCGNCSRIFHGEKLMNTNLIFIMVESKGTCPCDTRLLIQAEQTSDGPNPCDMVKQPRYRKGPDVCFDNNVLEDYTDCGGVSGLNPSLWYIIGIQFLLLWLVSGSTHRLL
recombinant human calcium channel α1B-2α2bβ1-2 on transfected HEK293 cells (human), sequence (A8K114 whole entry, chain 3 of 3, further chain): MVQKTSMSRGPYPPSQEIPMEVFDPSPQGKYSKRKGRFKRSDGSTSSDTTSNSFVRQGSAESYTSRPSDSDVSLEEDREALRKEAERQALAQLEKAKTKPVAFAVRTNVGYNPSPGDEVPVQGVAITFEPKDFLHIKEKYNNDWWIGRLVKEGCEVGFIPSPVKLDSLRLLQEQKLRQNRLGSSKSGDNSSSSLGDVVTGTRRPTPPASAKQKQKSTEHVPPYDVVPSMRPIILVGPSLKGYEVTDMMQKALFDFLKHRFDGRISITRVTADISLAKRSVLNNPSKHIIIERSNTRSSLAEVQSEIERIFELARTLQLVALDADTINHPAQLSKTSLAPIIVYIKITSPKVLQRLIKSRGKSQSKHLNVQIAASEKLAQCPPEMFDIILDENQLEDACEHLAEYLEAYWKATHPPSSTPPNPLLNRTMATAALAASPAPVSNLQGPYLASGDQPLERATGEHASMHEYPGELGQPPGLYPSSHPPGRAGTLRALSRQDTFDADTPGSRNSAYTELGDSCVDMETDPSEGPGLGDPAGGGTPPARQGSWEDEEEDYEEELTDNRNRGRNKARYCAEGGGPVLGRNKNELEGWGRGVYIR
recombinant human calcium channel α1B-1β1-2 on transfected HEK293 cells (human), sequence (B1AQK5 whole entry, chain 1 of 2): as the sequence (B1AQK5 whole entry, chain 1 of 3) above
recombinant human calcium channel α1B-1β1-2 on transfected HEK293 cells (human), sequence (A8K114 whole entry, chain 2 of 2, further chain): as the sequence (A8K114 whole entry, chain 3 of 3, further chain) above
T1 sequence (B1AQK5 whole entry, chain 1 of 2): as the sequence (B1AQK5 whole entry, chain 1 of 3) above
T1 sequence (P54289 whole entry, chain 2 of 2, further chain): as the sequence (P54289 whole entry, chain 2 of 3, further chain) above
human calcium channel α1B-1 subunit alone on transfected HEK293 cells (human), sequence (B1AQK5 whole entry): as the sequence (B1AQK5 whole entry, chain 1 of 3) above

## 125I-ω-CgTx GVIA (from UniProt P01522 46-72) (peptide)
[1]
  Bmax (sites/cell): 45300 sites/cell
  Kd: 0.0549 nM
  fold change of binding sites per cell (Bmax) against α1B-2α2bβ1-2: 2.5 fold
  fold change of surface receptor density (Bmax) against α1B-1β1-2: 8 fold
[2]
  Bmax (sites/cell): 2130 sites/cell
  Kd: 0.0164 nM
[3]
  Bmax (sites/cell): 8730 sites/cell
  Kd: 0.0179 nM
  fold change of surface binding (Bmax) against α1B-1 alone: 10 fold
[4]
  Bmax (sites/cell): 19400 sites/cell
  Kd: 0.053 nM
  fold change of surface receptor density (Bmax) against α1B-2β1-2: 9 fold
[5]
  Bmax (sites/cell): 37700 sites/cell
  Kd: 0.0443 nM
  fold change of binding capacity (Bmax) against α1B-2α2bβ1-2: 2 fold
  fold change of surface receptor density (Bmax) against α1B-2β1-3: 13 fold
[6]
  Bmax (sites/cell): 5760 sites/cell
  Kd: 0.0179 nM
  fold change of surface binding (Bmax) against α1B-1 alone: 8 fold
[7]
  Bmax (sites/cell): 2940 sites/cell
  Kd: 0.0222 nM

## ω-CgTx (from UniProt P01522 46-72) (peptide)
[8]
  Kd: 0.0546 nM
  binding capacity (Bmax) (sites per cell): 28700

## CKSPGSSCSPTSYNCCRSCNPYTKRCY (modifications not checked) [125I-ω-CgTx GVIA, P01522 46-72]
[9]
  Bmax (sites/cell): 2260 sites/cell
  Kd: 0.0846 nM
[10]
  Bmax (sites/cell): 757 sites/cell
  Kd: 0.0317 nM
[11]
  fold change of binding capacity (Bmax) against α1B-1 alone: 3 fold
